Laboratory results taken from the supplement of paper PMC9170038.

Test system: MS2 coat protein
Test: apparent KD of MS2 coat protein; designed switch direction (-1 OFF switch, 1 ON switch): -1; higher = weaker reporter binding
Summary of the method: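 On Illumina chips, designed RNA switches with common flanks were made by stalled E. coli RNA polymerase. Titrations with SNAP-549-labelled MS2 coat protein, doubling from 0.7 or 1.5 nM to 3 µM, were done with no input, with 200 uM small-molecule ligand, or with an oligonucleotide input. Apparent KD is the median per design over clusters, from curve fits of normalised cluster fluorescence.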

[1] = input ligand: microRNA oligo, concentration not stated
[2] = Eterna round: R95, input ligand: microRNA oligo, concentration not stated
[3] = Eterna round: R95, input ligand: FMN 200 uM
[4] = Eterna round: R95, input ligand: none

| Sequence | apparent KD of MS2 coat protein (input ligand: FMN 200 uM) [nM] | apparent KD of MS2 coat protein [1] [nM] | apparent KD of MS2 coat protein (input ligand: none) [nM] | apparent KD of MS2 coat protein [2] [nM] | apparent KD of MS2 coat protein [3] [nM] | apparent KD of MS2 coat protein [4] [nM] |
| --- | --- | --- | --- | --- | --- | --- |
| ACGCAUUGCCAAAGGUAGUGCGUAACAUGAGGAUCACCCAUGUAGGAUAUGGUAGGCUUUGCUUACCAGAAGGACAUAAUAAUU [Mat - Exclusion NG 3 - Mod of JL - D4] (Eterna round: R96, puzzle: Exclusion NG 3) | 43.6 | 22.7 | 27.8 |  |  |  |
| UUUGUGUAAGGAUAUGCGAGCCACGGAAAUAAAACGUGGAGGUAGAAGGUACAUGAGGAUCACCCAUGUAAAAC [Mod of Anonveat 21 - Jieux - Exclusion 4] (Eterna round: R97, puzzle: Exclusion 4) | 54.8 |  | 30 |  |  |  |
| GAAAACGCAGAGGAUAUUUCAGGUCAAAGCUGCAAAGAAGGCUGCACAUGAGGAUCACCCAUGUGGUCAAUAAA [Mod of Quesina 21 - Jieux - Exclusion 6] (Eterna round: R97, puzzle: Exclusion 6) | 419 |  | 34.3 |  |  |  |
| GUUAACGCAGGAUAUUAGUACAUGCACAUGAGGAUCACCCAUGUUUAGUGGGUCUAGGAAUAAGAAGGGCGAUGAA [EX5 #21] (Eterna round: R97, puzzle: Exclusion 5) | 210 |  | 227 |  |  |  |
| CGUAGCAAAGUGAGGAUAUCUAGAGCGAUAGCUCUAGAGAAGGCACAUGAGGAUCACCCAUGUGGUCAGCUACG [BmEx4/8-A4] (Eterna round: R97, puzzle: Brourd's mod of Exclusion 4) | 393 |  | 82.4 |  |  |  |
| AAACUGAGGCAAAGCUUUAGUCGUACAUGAGGAUCACCCAUGUAGGAUAUGGUAGGCAAAGCUUACCAGAAGGACAGAGUGAUC [Mat - Exclusion NG 3 - Mod of JL - D57] (Eterna round: R96, puzzle: Exclusion NG 3) | 251 | 487 | 344 |  |  |  |
| CUAUCAAGCAAGGAUAUGCAAUUUAUUAUUUAUGCAGAAGGUGCAACAUGAGGAUCACCCAUGUUUCUGGGUUU [JR_E6_Sub047] (puzzle: Exclusion 6) |  |  |  | 39.5 |  |  |
| GUUUCGAGACGGAGAUCCGACAUGAGGAUCACCCAUGUCUCACAAGCUUUUUGCUCGUCUUAUACUCCUCUGUUCUC [Elimod 48 - Jieux - Sensor, turn-off variant 1] (Eterna round: R97, puzzle: Sensor, turn-off variant 1) | 15.6 |  | 17.7 |  |  |  |
| CGGCAACAUGUCAGGAUAUAUGUACCGCUGGGUGGAUAGAAGGGACAUGAGGAUCACCCAUGUCGUCCAGCCGG [Tisove] (puzzle: Brourd's mod of Exclusion 4) |  |  |  | 12.6 | 19.4 | 13.9 |
| UUUAAUUUUUUUUUUUUACAAGCUUUUUGCUCGUCUUAUACAUGAGGAUCACCCAUGUGGGUGGAAGGUAAAUUAUC [JMF 70] (puzzle: Sensor v3, turn-off variant 2) |  |  |  | 26.7 | 79.4 | 176 |
| AAACUCCGGGUGAGGAUAUCUAGCAUCAAGACGCGAGAGAAGGCACUUGAGGAUCACCCAAGUACGUGGCCUAA [Quare] (Eterna round: R97, puzzle: Brourd's mod of Exclusion 4) | 153 |  | 99.9 |  |  |  |
| CGCUGGACAGGAUAUGUUCUUGGGCACUUGAGGAUCACCCAAGUCAUCGGGACAACAGGCACAGAAGGGUUUAUGG [salish99_ex5_r4_025] (Eterna round: R97, puzzle: Exclusion 5) | 31.6 |  | 43.9 |  |  |  |
| CGGUACUGAGGAUAUACAUGAGGAUCACCCAUGUGUUCUAGCUAGCGUACUGGCAUUAGUAGAAGGCGGUGCUG [JL-ex3-3.18 Brourd mod] (puzzle: Exclusion 3) |  |  |  | 15.4 | 28.9 | 17.2 |
| GGGCCCGGUGUGAGGAUAUUUCGAGUGAAAGCUUGAGAGAAGGCACAUGAGGAUCACCCAUGUAAGCCGGGCCC [-36.4, -34.3 kcal, A 26%, 1bis-0] (Eterna round: R97, puzzle: Brourd's mod of Exclusion 4) | 15.1 |  | 17.8 |  |  |  |
| UGAGUGCUGCGAGGAUAUACAUGAGGAUCACCCAUGUUUUCCUGUGAGGCUUUGCCUCACAGGAUGUAGAAGGCGCAGUACUCU [JL ENG2 1.14] (Eterna round: R96, puzzle: Exclusion NG 2) | 9.13 | 7.33 | 12.1 |  |  |  |
| CCCGUGUUAGGAUAUACGGCACACCUGCCAGCAGGUGUAUAGUAGAAGGAACAUGAGGAUCACCCAUGUAUAGC [Rizausma] (puzzle: Exclusion 4) |  |  |  | 34.6 |  |  |
| UAGAGACAUGAGGAUCACCCAUGUGAGGAUAUAGAGAAAGAUUGCGAGAGGGAGAGGACUAGAAGGCACAGUGA [JR_Exclu1_Sub033] (puzzle: Exclusion 1) |  |  |  | 48.8 | 39.1 | 51.9 |

| Sequence | apparent KD of MS2 coat protein (input ligand: FMN 200 uM) [nM] | apparent KD of MS2 coat protein [1] [nM] | apparent KD of MS2 coat protein (input ligand: none) [nM] | apparent KD of MS2 coat protein [2] [nM] | apparent KD of MS2 coat protein [3] [nM] | apparent KD of MS2 coat protein [4] [nM] |
| --- | --- | --- | --- | --- | --- | --- |
| UUUAUAAUAAGAUCAAUUAAUUAACAUGAGGAUCACCCAUGUGAGGAUAUCAGCUCGUUUAGAGCUGAGAAGGCACAAUAUAAG [ExNG3/17-B2] (Eterna round: R96, puzzle: Exclusion NG 3) | 62.2 | 42.1 | 42.3 |  |  |  |
| GUAUCGUGAGGAUAUCAUGAUUGACUUUUGUUUUGUCAGCGUGAGAAGGCACAUGAGGAUCACCCAUGUGAUUA [Ex4 - 3 - 9] (puzzle: Exclusion 4) |  |  |  | 22.3 |  |  |
| CGUGACUCAGGAUAUCUAUAGUGUCACAUGAGGAUCACCCAUGUCCAGCGAAAGCUGGAGGGAGAAGGGAGUCACG [Fiskers Ex 5 - 43] (puzzle: Exclusion 5) |  |  |  | 90.5 |  |  |
| UUUAAUUUUUUUUUUUUACAAGCUUUUUGCUCGUCUUAUACAUGAGGAUCACCCAUGUGGGUAGAGGAUAAAUUAUC [JMF 28] (puzzle: Sensor v3, turn-off variant 2) |  |  |  | 61.1 | 38.7 | 36.2 |
| ACUUACUGAGGAUAUACUUAGAUUUACAUGAGGAUCACCCAUGUUCCUCUAUGUAUAUAUGUAGAAGGCAGAAGUU [Mat - Exclusion 5 - JL Mod - D49] (Eterna round: R97, puzzle: Exclusion 5) | 216 |  | 38.1 |  |  |  |
| UCCACACAUGAGGAUCACCCAUGUCAGGAUAUCUUUAGGGACUAUGGUUAUUCCUAAUAGAGAAGGGACAUAUU [EX1 B.27] (Eterna round: R97, puzzle: Exclusion 1) | 152 |  | 37.1 |  |  |  |
| AUUAAAACAUAGGAUAUCGAAUUUAUUAUUUAACGAGAAGGAUGAACAUGAGGAUCACCCAUGUGGUAUCAUGG [Mat - Exclusion 6 - JL Mod - D26] (puzzle: Exclusion 6) |  |  |  | 202 |  |  |
| CUUAAAAGGUAGGAUAUGCUAGACGAAAGUCUAGCAGAAGGACCUACAUGAGGAUCACCCAUGUGUCCAAUAAG [Mat - Exclusion 6 - Eli Mod - D23] (Eterna round: R97, puzzle: Exclusion 6) | 50.6 |  | 86.3 |  |  |  |
| AGGCGUGCUGAGGAUAUACUACCGGGUGCGAUAGUAGAAGGUAGCACAUGAGGAUCACCCAUGUGGUCAGAUGC [Qureaor] (puzzle: Exclusion 6) |  |  |  | 20 | 56.3 | 23.6 |
| GUAAAAAAAAAGGAUAUCGAACUUAUUAUUUAACGAGAAGGAUGAACAUGAGGAUCACCCAUGUGGUAUCAUGG [test] (puzzle: Exclusion 6) |  |  |  | 143 | 92.3 | 213 |
| AAGGAUAGAGGAUAUACAUAGAUACAGAUUCGUGUAGAACUACAUGAGGAUCACCCAUGUAGAAGGCUAUCCUA [Fiskers Ex 2 - 7] (puzzle: Exclusion 2) |  |  |  | 15.2 |  |  |
| AAACCUGCCCAUGACCGCAAGCUUUUUGCUUGUCUCACCACAUGAGGAUCACCCAUGUGACAUGGGCUCCUUAUAAA [Orvesovera] (puzzle: Sensor v3, turn-off variant 2) |  |  |  | 9.96 | 13.7 | 12 |
| UAUAUAUAGUAAGGAUAUGUAUUUAAUUUAUAAACAGAAGGUACUGACAUGAGGAUCACCCAUGUUUUAGUGUGGGCAUGUAGA [JMF's solution 13] (Eterna round: R96, puzzle: Exclusion NG 1) |  | 80.8 |  |  |  |  |
| AGUACUAACACGAAAGUGUUAGUACAAUAAGCUUGUGAAACAUGAGGAUCACCCAUGUCCUCAUAAGCUCGUCUUAU [salish99_TOv2_r3_001again] (puzzle: Sensor v3, turn-off variant 2) |  |  |  | 648 | 16.7 | 15.9 |
| GGACCGUAAGGAUAUGGCACGAAUCGACAGUCGAUCUCGAGCUAGAAGGUACAUGAGGAUCACCCAUGUCCGUU [Eternabot (L1) Solution 13] (Eterna round: R97, puzzle: Exclusion 4) | 25.4 |  | 19.2 |  |  |  |
| GCAGCAACUCUAAUCAAUCAAACAUGAGGAUCACCCAUGUCUCAGGAUAUGGUCUGGAUUACAGGCCAGAAGGGAGAAAGCUGC [Eli exng3 - 045] (Eterna round: R96, puzzle: Exclusion NG 3) | 14.3 | 11.1 | 16.1 |  |  |  |
| UGAUCAGACCGAGGAUAUACAGGGAGGACGCACGUGAGUGCGUCCACUACAUGAGGAUCACCCAUGUAGAAGGCGGUCUGAUCU [JL ENG2 1.99] (Eterna round: R96, puzzle: Exclusion NG 2) | 319 | 16.9 | 19.9 |  |  |  |
